Measured values reported in US20220411517A1 (LEO PHARMA A S, published 2022).

T1: human IL1RAcP domain 1 (AG-12335) (human)
T1 construct: also called domain 1 of human IL-1RAcP
T1 chain: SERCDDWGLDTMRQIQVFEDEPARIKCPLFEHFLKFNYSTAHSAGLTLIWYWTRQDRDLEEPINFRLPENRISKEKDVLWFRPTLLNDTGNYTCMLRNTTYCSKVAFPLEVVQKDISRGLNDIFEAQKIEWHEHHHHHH

T2: human IL1RAcP domain 3 (AG-12127) (human)
T2 construct: also called domain 3 of human IL-1RAcP
T2 chain: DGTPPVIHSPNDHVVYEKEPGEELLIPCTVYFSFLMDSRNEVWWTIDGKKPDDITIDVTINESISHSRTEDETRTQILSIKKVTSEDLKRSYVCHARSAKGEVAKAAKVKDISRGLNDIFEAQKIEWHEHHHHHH

B1: R001031 (CAN04) (antibody, human IgG1, kappa, V domains shown)
VH: QVQLVQSGAEVKKPGSSVKVSCKASGYAFSSSWMNWVRQAPGQGLEWMGRIYPGDGNTHYAQKFQGRVTLTADKSTSTAYMELSSLRSEDTAVYYCGEGYLDPMDYWGQGTLVTVSS
VL: DIQMTQSPSSLSASVGDRVTITCSASQGINNYLNWYQQKPGKAPKLLIHYTSGLHAGVPSRFSGSGSGTDYTLTISSLQPEDVATYYCQQYSILPWTFGGGTKVEIKR
notes: Variable domains of prior art CAN04 on human IgG1 kappa constant regions with AEASS
B2: CAN04_h_FabCys-AviH (Fab, V domains shown)
VH: B1 VH
VL: B1 VL
notes: Tested as disulphide-linked Fab with Avi and His tags; also called CAN04 in FabCys-AviHis format; CAN04 (R001031)
B3: h11C5 YKD (antibody, human IgG1, kappa, V domains shown)
VH: EVQLVESGGGLVQPGGSLRLSCAASGFTFSNYAMSWVRQAPGKGLEWVATVTEGGDYNYYLDDVKGRFTISRDNAKNSLYLQMNSLRAEDTAVYYCARDDWPYFFDYWGQGTLVTVSS
VL: DIQMTQSPSSLSASVGDRVTITCRASENIYSNLAWYQQKPGKSPKLLVYGYKNLADVPSRFSGSGSGTDYTLTISSLQPEDFATYYCQHFKTTPRTFGGGTKVEIKR
notes: Variable domains of h11C5 YKD on the same modified IgG1 kappa constant regions (AEASS); Printed as 'h1105' in much of the text; also called h1105
B4: Y024084_h_IgG1f_AEASS (antibody, V domains shown)
VH: QVQLVQSGAEVKKPGASVKVSCKASGYTFTSYYMHWVRQAPGQGLEWMGIINPSGGSTSYAQKFQGRVTMTRDTSTSTVYMELSSLRSEDTAVYYCARGFVTSGIDYWGQGTLVTVSS
VL: QSVLTQPPSVSAAPGQKVTISCSGSSSNIGNNYVSWYQQLPGTAPKLLIYDNNKRPSGIPDRFSGSKSGTSATLGITGLQTEDEADYYCQTWTYTGRLWIVFGGGTKLTVLG
notes: also called Morphosys 24084; Mor Y024084
B5: Y024148_h_IgG1f_AEASS (antibody, V domains shown)
VH: EVQLVESGGGLVQPGGSLRLSCAASGGTIGGSAVHWVRQAPGKGLVWVSRILTYSSTTQYAESVKGRFTISRDNAKNTLYLQMNSLRAEDTAVYYCARGSSEYPKFDIWGQGTLVTVSS
VL: DIQMTQSPSTLSASVGDRVTITCRASQSISSWLAWYQQKPGKAPKLLIYDASSLESGVPSRFSGSGSGTEFTLTISSLQPEDFATYYCHQLLIYPHTFGQGTKVEIKR
notes: Human IgG1f with AEASS effector-silencing residues, kappa light chain
B6: 1A05_rbh_FabCys-AviH (Fab, V domains shown)
VH: LEQSGGGAEGGLVKPGGSLELCCKASGFSLSTSYWRCWVRQAPGKGLEWIGCIYAGSGDVTYYANWVNGRFTLSRDIDQSTGCLQLNSLTAADTAMYYCASGVGFGYFNLWGQGTLVTVSS
VL: ALVMTQTPSPVSAAVGGTVTINCQASEDIYSNLAWFQQKPGQPPKLLIYDASTLASGVPSRFSGSGSGTEFTLTISGLQSDDAATYYCLGVYTHISADNAFGGGTEVVVKR
notes: Tested as disulphide-linked Fab with Avi and His tags; also called 1A05 in FabCys-AviHis format; 1A05 (R001032)

Assays:
[1] = target: cynomolgus IL-1RAcP on cells (cynomolgus, UniProt A0A2K5X5J5 21-570); test: cell-based or functional assay
[2] = target: human IL-1RAcP on cells (human, UniProt Q9NPH3 21-570); test: cell-based or functional assay
[3] = target: T1, human IL1RAcP domain 1 (AG-12335); test: ELISA on directly coated human IL-1RAcP domain 1 (AG-12335), IgG titrated, S/BG
Experimental: All were assessed with direct coating of the antigen. […] An anti-His antibody served as positive control.

[4] = target: T3, hIL-1RAP(1-367)_F-chLys_Avi (human, biotinylated (Avi tag) in SPR and ELISA binning; unlabeled in SET); test: solution equilibrium titration (SET), ECL read-out, IgG
T3 construct: also called human IL-1RAcP (AG-12210)
Experimental: (§1) MSD SulfoTAG™ NHS-Ester (Meso Scale Diagnostics) according to the manufacturer's instructions. […] Serial dilutions of unlabeled antigen were prepared, starting with a concentration at least 10 times higher than the expected KD. Wells without antigen were used to determine Bₘₐₓ values;
(§2) wells containing only assay buffer were used to determine background. […] MSD plates were coated with antigen on standard plates (30 μL per well). After washing the plate with PBS with 0.05% Tween 20, the equilibrated samples were transferred to the plates and incubated for 20 min. […] After washing the MSD plate and adding 30 μL/well MSD Read Buffer T with surfactant, electrochemiluminescence signals were detected using a MESO SECTOR S 600 (Meso Scale Diagnostics).
(§3) The data was evaluated with XLfit (IDBS) software applying customized fitting models.

[5] = target: T4, cyIL-1RAP(1-367)_F-chLys_Avi (cynomolgus, biotinylated (Avi tag) in SPR; unlabeled in SET); test: as above
T4 construct: cynomolgus IL-1RAcP (21-367) is UniProt A0A2K5X5J5; also called cynomolgus IL-1RAcP (AG-12211)
Experimental: as §1, §2, §3

[6] = target: T5, human IL1RAcP domain 1/2 (AG-12337) (human); test: ELISA on directly coated human IL-1RAcP domain 1/2 (AG-12337), IgG1f_AEASS titrated, S/BG
T5 construct: also called domain 1/2 of human IL-1RAcP

[7] = target: T2, human IL1RAcP domain 3 (AG-12127); test: ELISA on directly coated human IL-1RAcP domain 3 (AG-12127), IgG titrated, S/BG
[8] = target: T3, hIL-1RAP(1-367)_F-chLys_Avi; test: ELISA binning; competitor: coated Y024084 FabCys-AviHis (sheet title Y024084_FAB COATED); 1.5 nM biotinylated human IL-1RAcP (AG-12210) pre-incubated with the titrated Fab; captured IL-1RAcP detected with streptavidin-AP
Experimental: (§4) Epitope binning was performed using an ELISA-based competition assay. The experiments were performed using either IgG1f_AEASS or FabCys-AviHis. Antibodies were diluted to three (3) nM (for IgGs) or to 20 nM (in case of Fabs) in PBS. […] The next day 90 μL/well blocking solution (5% BSA in PBS) was added to the plate followed by an incubation at RT for at least 1 h. During incubation, the competing antibodies, including reference and negative control antibodies, were diluted in assay buffer (1xPBS, 0.5% BSA, 0.02% Tween). […] Following the incubation of the blocking solution, the ELISA plates were washed 3× with PBST. Subsequently, 20 μl/well of the prepared antibody/antigen solution was transferred to the wells and incubated for 30 min with gentle agitation. Subsequently, plates were washed 3× using PBS-T.
(§5) For detection 20 μl of a prepared streptavidin-alkaline phosphatase conjugate solution was added to the wells in order to detect bound biotinylated human IL-1RAcP. Incubation happened for 30 min with gentle agitation. Following the incubation with streptavidin-alkaline phosphatase conjugate, assay plates were washed 5× with PBS-T. Then 20 μl of AttoPhos substrate (diluted 1:5 in H₂O) was added to the wells. Plates were incubated for 10 min at RT and readout happened using a Tecan M1000 Pro Reader.
(§6) Every graph represents an individual first antibody in the FabCys-AviHis format coated on the surface. […] Subsequently, preformed antigen antibody complex was added to the respective wells with the surface coated first antibody. Detection happened via the biotin of IL-1RAcP using a streptavidin-alkaline phosphatase conjugate.

[9] = target: T3, hIL-1RAP(1-367)_F-chLys_Avi; test: ELISA binning; competitor: coated Y024149 FabCys-AviHis (sheet title Y024149_FAB COATED); 1.5 nM biotinylated human IL-1RAcP (AG-12210) pre-incubated with the titrated Fab; captured IL-1RAcP detected with streptavidin-AP
Experimental: as §4, §5, §6

[10] = target: T3, hIL-1RAP(1-367)_F-chLys_Avi; test: ELISA binning; competitor: coated CAN04 FabCys-AviHis; 1.5 nM biotinylated human IL-1RAcP (AG-12210) pre-incubated with the titrated Fab; captured IL-1RAcP detected with streptavidin-AP
Experimental: as §4, §5, §6

[11] = target: T3, hIL-1RAP(1-367)_F-chLys_Avi; test: SPR (Biacore), biotinylated antigen captured, FabCys-AviHis as analyte, 1:1 fit
Experimental: (§7) Approximately 3000 RU capture reagent was bound. This surface was used to load biotinylated antigen to generate a low-density surface for subsequent kinetic characterization (approx. 60-100 RU antigen loaded). […] After injecting the last and highest analyte concentration, a long dissociation phase was recorded. […] A blank injection of assay buffer (HBS-EP+) following the same injection pattern as described above was recorded and subtracted from specific sensorgrams during analysis (double referencing). At the end of each cycle, the sensor was regenerated with one 120 s injection of 6 M guanidine hydrochloride in 250 mM NaOH, which completely removed capture reagent with loaded biotinylated antigen and bound Fab fragments. The obtained sensorgrams were fitted to a monovalent binding model using Biacore Insight Evaluation Software. The obtained values for rate constants kₒₙ and koff were used to calculate KD.

[12] = target: T4, cyIL-1RAP(1-367)_F-chLys_Avi; test: as above
Experimental: as §7

[13] = target: T3, hIL-1RAP(1-367)_F-chLys_Avi; test: ELISA on human IL-1RAcP (AG-12210), IgG1f_AEASS titrated 0.007-200 nM, AP-coupled secondary antibody with AttoPhos, signal over background (S/BG)
Text: (§8) Bound antibodies were detected using respective alkaline-phosphatase (AP) coupled secondary antibodies in combination with ‘AttoPhos’ fluorescence substrate. Multiple washing steps have been performed in between individual assay steps.

[14] = target: T4, cyIL-1RAP(1-367)_F-chLys_Avi; test: ELISA on cynomolgus IL-1RAcP (AG-12211), IgG1f_AEASS titrated 0.007-200 nM, AP-coupled secondary antibody with AttoPhos, signal over background (S/BG)
Text: as §8

[15] = target: recombinant rat IL-1RAcP (rat, UniProt Q63621 21-367, limits assumed); test: ELISA (FIG. 1-3 cited)
[16] = target: T6, mouse (AG-12212) IL-1RAcP (mouse, UniProt Q61730 21-367, limits assumed); test: ELISA in Fc-capture mode of the IgGs, mouse IL-1RAcP (AG-12212), S/BG
T6 construct: Recombinant tagged antigen; also called recombinant mouse IL-1RAcP; mouse IL-1RAP
Text: as §8

[17] = target: T3, hIL-1RAP(1-367)_F-chLys_Avi; test: SET, ratio of KD values
[18] = target: T4, cyIL-1RAP(1-367)_F-chLys_Avi; test: SET, ratio of KD values
[19] = target: T3, hIL-1RAP(1-367)_F-chLys_Avi; test: ELISA binning; competitor: coated Y024148 FabCys-AviHis; 1.5 nM biotinylated human IL-1RAcP (AG-12210) pre-incubated with the titrated Fab; captured IL-1RAcP detected with streptavidin-AP
Experimental: as §4
For detection 20 μl of a prepared streptavidin-alkaline phosphatase conjugate solution was added to the wells in order to detect bound biotinylated human IL-1RAcP. Incubation happened for 30 min with gentle agitation. Following the incubation with streptavidin-alkaline phosphatase conjugate, assay plates were washed 5× with PBS-T. Then 20 μl of AttoPhos substrate (diluted 1:5 in H₂O) was added to the wells. Plates were incubated for 10 min at RT and readout happened using a Tecan M1000 Pro Reader. […]

Binder	IC50, IL-8 release, CyDFa stimulated with cynomolgus IL-1β [1] [pM]	IC50, IFNγ release, PBMC stimulated with IL-1β [2] [pM]	IC50, IFNγ release, PBMC stimulated with IL-33 [2] [pM]	IC50, IL-8 release, HDFa stimulated with IL-1α [2] [pM]	IC50, IL-8 release, HDFa stimulated with IL-36α [2] [pM]	IC50, IL-8 release, HDFa stimulated with IL-36β [2] [pM]	IC50, IL-8 release, HDFa stimulated with IL-36γ [2] [pM]	IC50, IL-8 release, HEKa stimulated with IL-1β [2] [pM]	IC50, IL-8 release, HEKa stimulated with IL-36β [2] [pM]	binding result [3]	Kd [4] [pM]	Kd [5] [pM]	EC50 (read off the curve) [6] [pM]	binding result [7]	IC50 (read off the curve) [8] [pM]	IC50 (read off the curve) [9] [pM]	IC50 (read off the curve) [10] [pM]	Kd [11] [pM]	Kd [12] [pM]	EC50 (read off the curve) [13] [pM]	other results
B1	1000	3500	1300	3600	19	24	8	18000	20	no binding (tested: 2e-7 M)	21	16	~3000	no binding (tested: 2e-7 M)	–	–	–	–	–	–	–
B2	–	–	–	–	–	–	–	–	–	–	–	–	–	–	~1000	~2000	~1000	167	128	–	–
B3	1000	4600	820	22000	180	280	240	670000	1980	–	3	3	–	–	–	–	–	–	–	–	–
B4	120	5200	690	20000	25	33	22	19000	29	no binding (tested: 2e-7 M)	4	4	~3000	no binding (tested: 2e-7 M)	–	–	–	–	–	100 to 200	EC50 (read off the curve) [14]: 100 to 200 pM
B5	43	1200	720	1200	14	39	42	35000	200	no binding (tested: 2e-7 M)	2	1	~6000	no binding (tested: 2e-7 M)	–	–	–	–	–	100 to 200	binding result [15]: no binding; EC50 (read off the curve) [14]: 100 to 200 pM; binding result [16]: no binding (tested: 200 nM); fold stronger KD than reference R001031 (CAN04) [17]: ~10.5 fold; fold stronger KD than reference R001032 (1A05) [17]: ~5.5 fold; fold stronger KD than reference R001031 (CAN04) [18]: ~16 fold; fold stronger KD than reference R001032 (1A05) [18]: ~15 fold
B6	–	–	–	–	–	–	–	–	–	–	–	–	–	–	~1000	~1000	~1000	221	184	–	IC50 (read off the curve) [19]: ~1000 pM
